Experimental data as given in publication PMC3322874 (The Journal of Biological Chemistry, 2012).
Where a chain is given by its changes, count along the chain named. Names may count otherwise.

B1: R182K-AfUGM (enzyme, Aspergillus fumigatus)
chain: THPDISVDVLVIGAGPTGLGAAKRLNQIDGPSWMIVDSNETPGGLASTDVTPEGFLYDVGGHVIFSHYKYFDDCLDEALPKEDDWYTHQRISYVRCQGQWVPYPFQNNISMLPKEEQVKCIDGMIDAALEARVANTKPKTFDEWIVRMMGTGIADLFMRPYNFKVWAVPTTKMQCAWLGEKVAAPNLKAVTTNVILGKTAGNWGPNATFRFPARGGTGGIWIAVANTLPKEKTRFGEKGKVTKVNANNKTVTLQDGTTIGYKKLVSTMAVDFLAEAMNDQELVGLTKQLFYSSTHVIGVGVRGSRPERIGDKCWLYFPEDNCPFYRATIFSNYSPYNQPEASKKLPTMQLADGSRPQSTEAKEGPYWSIMLEVSESSMKPVNQETILADCIQGLVNTEMLKPTDEIVSTYHRRFDHGYPTPTLEREGALTQILPKLQDKDIWSRGRFGSWRYEVGNQDHSFMLGVEAVDNIVNGAVELTLNYPDFVNGRQNTERRLVDGAQVFAKSKAQ
B2: R327K-AfUGM (enzyme, Aspergillus fumigatus)
chain: B1 chain with K181R, R326K

Biological target: the molecule itself
Assay: crystal structure

Protein | stoichiometry N
B1 | 4
B2 | 4
